This note sets out measurements from the supplement of paper PMC11246515.

± gives the standard deviation of the averaged measurements.

The series in a line: total protein half-life in vivo (active degradation + dilution); higher = more stable protein.
[1] abbreviates: E. coli NCM3722 delta-clpP, growth: N-lim chemostat, doubling time 6 h.
Setting [2] is: E. coli NCM3722 delta-lon, growth: N-lim chemostat, doubling time 6 h.
[3] abbreviates: E. coli NCM3722 delta-smpB, growth: N-lim chemostat, doubling time 6 h.
Setting [4] is: wild type E. coli NCM3722, growth: C-lim chemostat, doubling time 3 h.
Setting [5] is: wild type E. coli NCM3722, growth: C-lim chemostat, doubling time 6 h.
[6] abbreviates: wild type E. coli NCM3722, growth: N-lim chemostat, doubling time 6 h.
Setting [7] is: wild type E. coli NCM3722, growth: N-lim chemostat, doubling time 12 h.
[8] abbreviates: wild type E. coli NCM3722, growth: P-lim chemostat, doubling time 6 h.
Setting [9] is: wild type E. coli NCM3722, growth: P-lim chemostat, doubling time 12 h.
[10] abbreviates: E. coli NCM3722 delta-clpP delta-lon delta-hslV, growth: N-lim chemostat, doubling time 6 h.
Where [11] appears, read: E. coli NCM3722 delta-hslV, growth: N-lim chemostat, doubling time 6 h.
The mark [12] stands for this setting: wild type E. coli NCM3722, growth: C-lim chemostat, doubling time 12 h.

Consider “MKLSTCCAALLLALASPAVLAAPGSCERIQSDISQRIINNGVPESSFTLSIVPNDQVDQPDSQVVGHCANDTHKILYTRTTSGNVSAPAQSSQDGAPAEPQ”, for which the “total protein half-life in vivo” value runs as follows: under setting [1], 6.13 h; under setting [2], 6.79 h; under setting [3], 4.61 h; under setting [4], 3.25 h; under setting [5], 6.33 h; under setting [6], 5.52 h. The “total protein half-life in vivo” value runs as follows: under setting [7], 11.6 ± 1.9 h; under setting [8], 5.94 ± 0.1 h; under setting [9], greater than 16 h.

As to “MSGQGKRLMVMAGGTGGHVFPGLAVAHHLMAQGWQVRWLGTADRMEADLVPKHGIEIDFIRISGLRGKGIKALIAAPLRIFNAWRQARAIMKAYKPDVVLGMGGYVSGPGGLAAWSLGIPVVLHEQNGIAGLTNKWLAKIATKVMQAFPGAFPNAEVVGNPVRTDVLALPLPQQRLAGREGPVRVLVVGGSQGARILNQTMPQVAAKLGDSVTIWHQSGKGSQQSVEQAYAEAGQPQHKVTEFIDDMAAAYAWADVVVCRSGALTVSEIAAAGLPALFVPFQHKDRQQYWNALPLEKAGAAKIIEQPQLSVDAVANTLAGWSRETLLTMAERARAASIPDATERVANEVSRVARA”, the “total protein half-life in vivo” value amounted to 5.45 ± 0.24 h under setting [10]; 6.19 ± 0.33 h under setting [1]; 6.2 ± 0.14 h under setting [11]; 6.36 ± 0.52 h under setting [2]; 6.16 ± 0.19 h under setting [3]; 3.02 ± 0.13 h under setting [4]. In addition, the “total protein half-life in vivo” value reads like this: under setting [5], 6.82 ± 0.71 h; under setting [12], 10.9 ± 0.94 h; under setting [6], 6.21 ± 0.43 h; under setting [7], 12.6 ± 0.14 h; under setting [8], 6.05 ± 0.2 h; under setting [9], 11.6 ± 0.54 h.

As to “MFDSLAKAGKYLGQAAKLMIGMPDYDNYVEHMRVNHPDQTPMTYEEFFRERQDARYGGKGGARCC [P0AAS9]”, the “total protein half-life in vivo” value is 1.43 h under setting [4], 1.49 ± 0.45 h under setting [5] and 1.47 h under setting [12].

For “MLNQLDNLTERVRGSNKLVDRWLHVRKHLLVAYYNLVGIKPGKESYMRLNEKALDDFCQSLVDYLSAGHFSIYERILHKLEGNGQLARAAKIWPQLEANTQQIMDYYDSSLETAIDHDNYLEFQQVLSDIGEALEARFVLEDKLILLVLDAARVKHPA [P0AFX4]”, the “total protein half-life in vivo” value runs as follows: under setting [1], 6.38 h; under setting [11], 2.42 ± 0.21 h; under setting [2], 2.8 h; under setting [3], 2.38 ± 0.34 h; under setting [5], 3.06 ± 0.11 h; under setting [12], 5.14 ± 0.081 h. For the same sequence, the “total protein half-life in vivo” value runs as follows: under setting [6], 2.51 ± 0.29 h; under setting [7], 3.09 ± 0.19 h; under setting [8], 3.51 h; under setting [9], 5.62 ± 0.091 h.

Consider “MFYPDPFDVIIIGGGHAGTEAAMAAARMGQQTLLLTHNIDTLGQMSCNPAIGGIGKGHLVKEVDALGGLMAKAIDQAGIQFRILNASKGPAVRATRAQADRVLYRQAVRTALENQPNLMIFQQAVEDLIVENDRVVGAVTQMGLKFRAKAVVLTVGTFLDGKIHIGLDNYSGGRAGDPPSIPLSRRLRELPLRVGRLKTGTPPRIDARTIDFSVLAQQHGDNPMPVFSFMGNASQHPQQVPCYITHTNEKTHDVIRSNLDRSPMYAGVIEGVGPRYCPSIEDKVMRFADRNQHQIFLEPEGLTSNEIYPNGISTSLPFDVQMQIVRSMQGMENAKIVRPGYAIEYDFFDPRDLKPTLESKFIQGLFFAGQINGTTGYEEAAAQGLLAGLNAARLSADKEGWAPARSQAYLGVLVDDLCTLGTKEPYRMFTSRAEYRLMLREDNADLRLTEIGRELGLVDDERWARFNEKLENIERERQRLKSTWVTPSAEAAAEVNAHLTAPLSREASGEDLLRRPEMTYEKLTTLTPFAPALTDEQAAEQVEIQVKYEGYIARQQDEIEKQLRNENTLLPATLDYRQVSGLSNEVIAKLNDHKPASIGQASRISGVTPAAISILLVWLKKQGMLRRSA [P0A6U3]”, for which the “total protein half-life in vivo” value is 5.157 ± 0.0054 h under setting [10]; 4.25 ± 0.18 h under setting [1]; 1.64 ± 0.088 h under setting [11]; 1.831 ± 0.014 h under setting [2]; 1.73 ± 0.065 h under setting [3]; 1.42 ± 0.081 h under setting [4]. Moreover, the “total protein half-life in vivo” value was found to be 2.35 ± 0.068 h under setting [5]; 3.19 ± 1.2 h under setting [12]; 1.71 ± 0.14 h under setting [6]; 2.48 ± 0.15 h under setting [7]; 1.9 ± 0.13 h under setting [8]; 3.12 ± 0.84 h under setting [9].

As for “MAMETQDIIKRSATNSITPPSQVRDYKAEVAKLIDVSTCIGCKACQVACSEWNDIRDEVGHCVGVYDNPADLSAKSWTVMRFSETEQNGKLEWLIRKDGCMHCEDPGCLKACPSAGAIIQYANGIVDFQSENCIGCGYCIAGCPFNIPRLNKEDNRVYKCTLCVDRVSVGQEPACVKTCPTGAIHFGTKKEMLELAEQRVAKLKARGYEHAGVYNPEGVGGTHVMYVLHHADQPELYHGLPKDPKIDTSVSLWKGALKPLAAAGFIATFAGLIFHYIGIGPNKEVDDDEEDHHE [P0AAJ3]”, the “total protein half-life in vivo” value reads like this: under setting [1], 4.35 h; under setting [11], greater than 8 h; under setting [6], 3.95 h; under setting [8], 6.22 h.

As to “MRQTKTGILLANLGTPDAPTPEAVKRYLKQFLSDRRVVDTSRLLWWPLLRGVILPLRSPRVAKLYASVWMEGGSPLMVYSRQQQQALAQRLPEMPVALGMSYGSPSLESAVDELLAEHVDHIVVLPLYPQFSCSTVGAVWDELARILARKRSIPGISFIRDYADNHDYINALANSVRASFAKHGEPDLLLLSYHGIPQRYADEGDDYPQRCRTTTRELASALGMAPEKVMMTFQSRFGREPWLMPYTDETLKMLGEKGVGHIQVMCPGFAADCLETLEEIAEQNREVFLGAGGKKYEYIPALNATPEHIEMMANLVAAYR”, the “total protein half-life in vivo” value under setting [1] stood at 6.11 ± 0.13 h; the “total protein half-life in vivo” value under setting [11] came to 6.43 ± 0.78 h; the “total protein half-life in vivo” value under setting [2] worked out at 5.98 ± 0.68 h; the “total protein half-life in vivo” value under setting [3] came out at 5.63 ± 0.32 h; the “total protein half-life in vivo” value under setting [4] was determined as 2.96 ± 0.033 h; the “total protein half-life in vivo” value under setting [5] was found to be 6.24 ± 0.92 h. For the same sequence, the “total protein half-life in vivo” value reads like this: under setting [12], 10.5 ± 2.5 h; under setting [6], 5.33 ± 0.98 h; under setting [7], 12.1 ± 0.19 h; under setting [8], 5.73 ± 0.36 h; under setting [9], 12.2 ± 1.5 h.

As to “MTNVLIVEDEQAIRRFLRTALEGDGMRVFEAETLQRGLLEAATRKPDLIILDLGLPDGDGIEFIRDLRQWSAVPVIVLSARSEESDKIAALDAGADDYLSKPFGIGELQARLRVALRRHSATTAPDPLVKFSDVTVDLAARVIHRGEEEVHLTPIEFRLLAVLLNNAGKVLTQRQLLNQVWGPNAVEHSHYLRIYMGHLRQKLEQDPARPRHFITETGIGYRFML”, the “total protein half-life in vivo” value by setting is: under setting [10], 5.392 ± 0.013 h; under setting [1], 5.1 ± 0.7 h; under setting [11], 5.29 ± 0.32 h; under setting [2], 4.99 ± 0.47 h; under setting [3], 4.92 ± 0.36 h; under setting [4], 3.04 ± 0.1 h. Further, the “total protein half-life in vivo” value is 5.35 ± 0.76 h under setting [5]; 10.1 ± 0.52 h under setting [12]; 5.05 ± 0.32 h under setting [6]; 9.806 ± 0.011 h under setting [7]; 5.79 ± 0.17 h under setting [8]; 10.1 ± 2 h under setting [9].

For “MKTLIARHKAGEHIGICSVCSAHPLVIEAALAFDRNSTRKVLIEATSNQVNQFGGYTGMTPADFREFVFTIADKVGFARERIILGGDHLGPNCWQQENADAAMEKSVELVKEYVRAGFSKIHLDASMSCAGDPIPLAPETVAERAAVLCFAAESVATDCQREQLSYVIGTEVPVPGGEASAIQSVHITHVEDAANTLRTHQKAFIARGLTEALTRVIAIVVQPGVEFDHSNIIHYQPQEAQPLAQWIENTRMVYEAHSTDYQTRTAYWELVRDHFAILKVGPALTFALREAIFALAQIEQELIAPENRSGCLAVIEEVMLDEPQYWKKYYRTGFNDSLLDIRYSLSDRIRYYWPHSRIKNSVETMMVNLEGVDIPLGMISQYLPKQFERIQSGELSAIPHQLIMDKIYDVLRAYRYGCAE [P0C8J8]”, the “total protein half-life in vivo” value was 5.59 h under setting [10], 2.97 h under setting [5] and greater than 8 h under setting [6].
